According to article PMC1762332, “Catalases Are NAD(P)H-Dependent Tellurite Reductases” (PLoS ONE, 2006):

B1: S. epidermidis CH catalase (product of the katA gene) expressed from plasmid pCAT (enzyme, Staphylococcus epidermidis CH, UniProt Q2PUJ9 1-504, looked up)
chain: MSKQDGKLTGLFGAPVSDRENSMTAGRRGPLLMQDVYYLEQISHFDREVIPERRMHAKGSGAFGTFTVTNDITQYTNAKIFSEVGKQTEMFARFSTVSGERGAADLERDIRGFALKFYTEDGNWDLVGNNTPVFFFRDPKLFISLNRAVKRDPRTNMRSAQNNWDFWTGLPEALHQVTILMSDRGMPKGFRNMHGFGSHTYSMYNDKGERVWVKYHFRTQQGIENYTDEEAAKIVGMDRDSSQRDLYNAIENGDYPKWKMYIQVMTEEQAKNHPDNPFDLTKVWYKKDYPLIEVGEFELNRNPENYFLDVEQAAFAPTNIVPGLDYSPDKMLQGRLFSYGDAQRYRLGVNHWQIPVNQPKGVGVENLCPFSRDGQMRFLDNNQGGGPHYYPNNQGIYESQPEHKKPPFPTDGDGYEYNYRQDDDNYFEQPGKLFRLQSEDAKERIFTNTANAMDGVSKDVKVRHIRHCYKADPEYGKGVAKALDIDINQIDLETNQDETYENFK
notes: catalase KatA of Staphylococcus epidermidis strain CH; The coding region was amplified with primers from the ATG to the stop codon; The 1,515 bp gene is deposited as GenBank DQ301862 and differs by 15 bp from its homolog SE1016 in strain ATCC12228; Cloned with the pBAD TOPO TA Expression Kit; also called S. epidermidis catalase; 60 kDa protein; source: E. coli Top10 carrying pCAT (pBAD vector), …
B2: bovine liver catalase (enzyme, UniProt P00432 1-527, looked up)
chain: MADNRDPASDQMKHWKEQRAAQKPDVLTTGGGNPVGDKLNSLTVGPRGPLLVQDVVFTDEMAHFDRERIPERVVHAKGAGAFGYFEVTHDITRYSKAKVFEHIGKRTPIAVRFSTVAGESGSADTVRDPRGFAVKFYTEDGNWDLVGNNTPIFFIRDALLFPSFIHSQKRNPQTHLKDPDMVWDFWSLRPESLHQVSFLFSDRGIPDGHRHMNGYGSHTFKLVNANGEAVYCKFHYKTDQGIKNLSVEDAARLAHEDPDYGLRDLFNAIATGNYPSWTLYIQVMTFSEAEIFPFNPFDLTKVWPHGDYPLIPVGKLVLNRNPVNYFAEVEQLAFDPSNMPPGIEPSPDKMLQGRLFAYPDTHRHRLGPNYLQIPVNCPYRARVANYQRDGPMCMMDNQGGAPNYYPNSFSAPEHQPSALEHRTHFSGDVQRFNSANDDNVTQVRTFYLKVLNEEQRKRLCENIAGHLKDAQLFIQKKAVKNFSDVHPEYGSRIQALLDKYNEEKPKNAVHTYVQHGSHLSAREKANL
notes: catalase (EC 1.11.1.6) from bovine liver, commercial purified enzyme; the legend calls it a tetramer of 255 kDa; also called bovine catalase; catalase (C-9322); source: bought: Sigma (C-9322), purified

What was measured:
[1] = target: the molecule itself; assay: native gel or EMSA; crude extracts of E. coli Top10 (pCAT) on native 12% polyacrylamide gel, 40 mM Tris-glycine pH 8.3, 4°C; catalase found by H2O2 dismutase and tellurite reductase activity staining in situ
[2] = target: the molecule itself; assay: native gel or EMSA; purified bovine liver catalase on native 12% polyacrylamide gel, 40 mM Tris-glycine pH 8.3, 4°C; band compared with a 244 kDa standard; dismutase and tellurite reductase activities stained in situ

Protein | stoichiometry N [1] | stoichiometry N [2]
B1 | 4 | 
B2 |  | 4
